Experimental findings from CN110526968A (UNIV NORTHWEST A&F, dated 2019) are described below.

This test concerns the target T1, 金黄色葡萄球菌肠毒素B (Staphylococcus aureus, UniProt P01552 28-266).
T1 construct: also called SEB
T1 sequence: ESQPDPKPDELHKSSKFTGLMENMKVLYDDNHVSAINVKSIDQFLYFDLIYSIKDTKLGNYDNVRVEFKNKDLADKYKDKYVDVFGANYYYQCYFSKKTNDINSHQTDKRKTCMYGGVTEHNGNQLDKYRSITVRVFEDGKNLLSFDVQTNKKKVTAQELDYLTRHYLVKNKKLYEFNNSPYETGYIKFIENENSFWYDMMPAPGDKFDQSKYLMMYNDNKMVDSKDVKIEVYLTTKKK
Briefly: phage ELISA on coated SEB, HRP anti-M13 detection. Background: ELISA stands for enzyme-linked immunosorbent assay.

B1: 噬菌体克隆B7 (VHH)
VHH: ESGGGLVQAGGSLRLSCKVSGFNFREHALAWFRQAPGKEREGVSCIRGSGDYTTYADSVKGRFTISRDNAQNTLYLQMNSLRPEDTAMYYCAAARYARYYPNNCLDSAEYGYWGQGTLVTVS
notes: also called B7克隆
For the molecule B1, the binding result is given as “binds”.
